{"source": "paper PMC9798254", "test_system": "N[C@H](COP(=O)(O)O)Cc1c[nH]cn1", "experiment": "purified protein", "details": "100 mM Tris/HCl pH 7.8, 5 mM MgCl2, 25°C", "data": [{"substance": "ecHisB‐N (Escherichia coli K-12)", "values": [{"measurement": "Km", "value": "48 ± 3", "unit": "µM"}, {"measurement": "kcat", "value": "2.8 ± 0.1", "unit": "s⁻¹"}, {"measurement": "kcat/Km", "value": 58000, "unit": "M⁻¹ s⁻¹"}]}]}
